T1: His-mouse LIGHT (mouse)
T1 construct: also called His-musLIGHT
T1 chain: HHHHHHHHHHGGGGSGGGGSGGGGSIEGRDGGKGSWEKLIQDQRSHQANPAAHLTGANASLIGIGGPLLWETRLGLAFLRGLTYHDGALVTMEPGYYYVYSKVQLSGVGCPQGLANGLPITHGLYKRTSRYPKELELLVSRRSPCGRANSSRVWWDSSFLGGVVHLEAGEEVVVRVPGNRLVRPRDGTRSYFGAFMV

T2: His-human LIGHT (human)
T2 chain: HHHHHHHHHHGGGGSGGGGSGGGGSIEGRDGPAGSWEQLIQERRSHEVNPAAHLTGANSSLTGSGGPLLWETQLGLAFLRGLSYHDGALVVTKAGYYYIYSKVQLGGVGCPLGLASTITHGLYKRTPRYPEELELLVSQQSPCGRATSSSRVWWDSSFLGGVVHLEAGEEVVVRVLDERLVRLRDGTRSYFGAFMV

T3: His-cynomolgus monkey LIGHT (cynomolgus monkey)
T3 construct: also called His-cynoLIGHT
T3 chain: T2 chain with P32H, A33G, E47Q, V48N, S83D, V91A, T92N, S149N, A167V

B1: LT-m64 (antibody, human IgG4, V domains shown)
VH: EVKLEESGAELVKPGASVRLSCKTSGYTFTNYYVYWVKQRPGQGLEWIGEINPTNGDPNFNEKFKSKATLTVDKSSSTAYMHLSSLTSEDSAVYYCTRSNWDYGNAMDFWGQGTSVTVSS
VL: DIVMTQSPASLAVSLGQRATISCKASQSVDFDGDGYMNWYQQKPGQPPKLLIYKASHLDSGIPARFSASGSGTDFTLNIHPVEEEDAATYYCQQSIEDPFTFGSGTKLEIK
B2: LT-m55 (antibody, human IgG4, V domains shown)
VH: EVQLQQSGAELVKPGASVKLSCKASGYTFATYYMYWVKQRPGQGLEWIGEINPTNGGTIFNEKFKTKATLTVDKSSSTAYMQLSSLTSEDSAVYYCARGNWPYWSFDVWGAGTSVTVSS
VL: B1 VL with M4L, G35N, K54A, H57N, F100W, S104G
B3: LT-m58 (antibody, human IgG4, V domains shown)
VH: QVQLQQSGAEMASPGASVTLSCKASGYTFIDHIMNWVKKRPGQGLEWIGRIYPVSGETNYNQKFMGKATFSVDRSSSTVYMVLNSLTSEDPAVYYCGRGSYYWNAMDYWGQGTTLTVSS
VL: B1 VL with G35S, K54S, H57N, D59E, A68G, F100W, S104G
B4: LT-m17 (antibody, human IgG4, V domains shown)
VH: QVQLQQSGPELVKPGASVKISCKASGYSFTGYFMNWVKQSHGKSLEWIGRIYPYSGDTFYNQKFNNKATLTVDKSSSTAHLELLSLTSEDSAVYYCGRSEHFGRNYGTGAVDYWGQGTSVTVSS
VL: DVVMTQTPLSLPVSLGDQASISCRSSQGLVHSNGNTYLHWYLQKPGQSPKLLIYKVSNRFSGVPDRFSGSGSGTDFTLKISRVEAEDLGIYFCSQSTHVPYTFGGGTKLEIK
B5: hum_LT-m37-7 (antibody, human IgG4, V domains shown)
VH: QVQLVQSGAEVKKPGASVKVSCKASGYSFTGYFINWVRQAPGQGLEWIGRIYPYNVNTFYNQNFKGRATMTADKSTSTAYMELSSLRSEDTAVYYCGRGTHYYGSSGAMDYWGQGTLVTVSS
VL: EIVMTQSPATLSVSPGERATLSCKASQNVGTAVAWYQQKPGQSPRLLIYSASNRYTGIPARFSGSGSGTEFTLTISSLQSEDFAVYFCQQYSSYPYTFGGGTKVEIK
notes: humanized from LT-m37
B6: hum_LT-m37-12 (antibody, human IgG4, V domains shown)
VH: B5 VH with A68V
VL: B5 VL with M4L, F87Y
notes: humanized from LT-m37
B7: hum_LT-m37-10 (antibody, human IgG4, V domains shown)
VH: B5 VH with M70L
VL: B5 VL with M4L, F87Y
notes: humanized from LT-m37
B8: hum_LT-m37-11 (antibody, human IgG4, V domains shown)
VH: B5 VH
VL: B5 VL with M4L, F87Y
notes: humanized from LT-m37
B9: hum_LT-m37-9 (antibody, human IgG4, V domains shown)
VH: B5 VH with G44S, M70L
VL: B5 VL with M4L, F87Y
notes: humanized from LT-m37
B10: hum_LT-m37-8 (antibody, human IgG4, V domains shown)
VH: B5 VH with A68V
VL: B5 VL
notes: humanized from LT-m37
B11: LT-m18 (antibody, V domains shown)
VH: B4 VH with Q1E, Q3K, Q5L, Q6E
VL: B4 VL with V2I, M4L, T7S, G28S, I90V, Y101L, G105D, K108R
B12: hum_LT-m85-5 (antibody, human IgG4, V domains shown)
VH: QVQLVQSGAEVKKPGASVKVSCKASGYTFTSYNVHWVRQAPGQGLEWIGAVYPGNGDTSYNQKFKGRATLTADKSTSTAYMELSSLRSEDTAVYYCARGSYYYTSSYFDHWGQGTLVTVSS
VL: DIVLTQSPDSLAVSLGERATINCKASQSVDFDGDSYMNWYQQKPGQPPKLLIYTASNLESGIPDRFSGSGSGTDFTLTISSLQAEDVAVYYCQQSYEDPFTFGQGTKVEIK
notes: humanized from LT-m85
B13: hum_LT-m85-9 (antibody, human IgG4, V domains shown)
VH: B12 VH with A79V
VL: B12 VL with L4M, I62V
notes: humanized from LT-m85
B14: hum_LT-m85-8 (antibody, human IgG4, V domains shown)
VH: B12 VH
VL: B12 VL with L4M, I62V
notes: humanized from LT-m85
B15: hum_LT-m85-7 (antibody, human IgG4, V domains shown)
VH: B12 VH with A79V
VL: B12 VL
notes: humanized from LT-m85
B16: hum_LT-m85-6 (antibody, human IgG4, V domains shown)
VH: B12 VH with I48M
VL: B12 VL
notes: humanized from LT-m85

The text below walks through data of patent EP4596580A1 (Staidson (Beijing) Biopharmaceuticals Co., Ltd., dated 2025).

Where a chain is given by its changes, count along the chain named.

The first experiment has as its target T1, His-mouse LIGHT. In words: ELISA, His-musLIGHT coated.
With B1, the binding result is “no binding”.
Regarding B2, the binding result is “no binding”.
Take B3: the binding result is given as “no binding”.

For another experiment, the target named is T2, His-human LIGHT. In words: cell-based or functional assay.
In the case of B1, the “IC50, HVEM NF-κB luciferase reporter (293T-HVEM-NF-κB-Luc), free LIGHT” value (“IC50 … (293T-HVEM-NF-κB-Luc), free LIGHT” below) is 0.264 µg/mL.
Turning to B2, the “IC50 … (293T-HVEM-NF-κB-Luc), free LIGHT” value worked out at 0.264 µg/mL.
For the molecule B3, the “IC50 … (293T-HVEM-NF-κB-Luc), free LIGHT” value came to 0.318 µg/mL.
On to B4, for which the “IC50 … (293T-HVEM-NF-κB-Luc), free LIGHT” value is 0.184 µg/mL.

For the next experiment, the target named is T2, His-human LIGHT. Description: cell-based or functional assay. The source holds these as a separate data set.
For the molecule B5, the “IC50, LTβR NF-κB luciferase reporter, free LIGHT” value was determined as 0.135 µg/mL.
Regarding B6, the “IC50, LTβR NF-κB luciferase reporter, free LIGHT” value was 0.144 µg/mL.
Regarding B7, the “IC50, LTβR NF-κB luciferase reporter, free LIGHT” value came to 0.153 µg/mL.
Turning to B8, the “IC50, LTβR NF-κB luciferase reporter, free LIGHT” value was found to be 0.203 µg/mL.
Turning to B9, the “IC50, LTβR NF-κB luciferase reporter, free LIGHT” value came out at 0.227 µg/mL.
Take B10: the “IC50, LTβR NF-κB luciferase reporter, free LIGHT” value was found to be 0.17 µg/mL.

For the next experiment, the target named is LIGHT on the surface of HEK293-LIGHT stable cells (human, UniProt O43557 1-240). In words: cell-based or functional assay.
Regarding B5, the “IC50, LTβR NF-κB luciferase reporter, HEK293-LIGHT cells” value was determined as 3.72 µg/mL.
Regarding B6, the “IC50, LTβR NF-κB luciferase reporter, HEK293-LIGHT cells” value is 2.57 µg/mL.
The same measure, in the same setting: the figure for B7 is 4.46 µg/mL; for B8 it is 2.93 µg/mL; for B9 it is 3.86 µg/mL.
Same read-out and setting: next, B10: 3.22 µg/mL.

The next experiment deals with T2, His-human LIGHT. Description: ELISA, His-huLIGHT coated.
B1 registered a concentration giving a half-maximal response (EC50) of 0.0112 µg/mL.
B2 yielded an EC50 of 0.0332 µg/mL.
The molecule B3 showed a half-maximal effective concentration (EC50) of 0.0243 µg/mL.
The molecule B4 gave a concentration giving a half-maximal response (EC50) of 0.0871 µg/mL.
B11 displayed an EC50 of 0.0835 µg/mL.

A further experiment concerns the target T2, His-human LIGHT. Description: ELISA, His-huLIGHT coated. The source holds these as a separate data set.
The molecule B5 registered an EC50 of 0.0801 µg/mL.
Turning to B6, the midpoint of the response, the EC50, lay at 0.0878 µg/mL.
The molecule B7 yielded an EC50 of 0.0918 µg/mL.
With B8, the EC50 amounted to 0.0907 µg/mL.
Regarding B9, the EC50 worked out at 0.0825 µg/mL.
In the case of B10, the EC50 came out at 0.0795 µg/mL.

The target of a further experiment is T2, His-human LIGHT. In words: ELISA, His-huLIGHT coated. The source holds these as a separate data set.
For the molecule B12, the EC50 turned out to be 0.0061 nM.
With B13, the EC50 stood at 0.002 nM.
On the same count and under the same terms, the figure for B14 is 0.00951 nM.
Take B15: a half-maximal response (EC50) required 0.00542 nM.
Still for that read-out and setting: the figure for B16 is 0.00479 nM.

The target of a further experiment is T3, His-cynomolgus monkey LIGHT. Description: ELISA, His-cynoLIGHT coated.
As to B5, the 50% effective concentration (EC50) turned out to be 0.0474 nM.
The molecule B6 yielded an EC50 of 0.053 nM.
With B7, the concentration for a half-maximal effect (EC50) was determined as 0.0463 nM.
Still for that read-out and setting: the figure for B8 is 0.0494 nM.
As to B9, the response was half-maximal at 0.0478 nM (EC50).
In the case of B10, the concentration giving a half-maximal response (EC50) was 0.0449 nM.

In another experiment the target is T2, His-human LIGHT. Description: SPR, Biacore 8K, antibody on CM5 chip.
The molecule B1 displayed a Kd of 0.0557 nM, a koff of 5.61e-05 s⁻¹ and a kon of 1.01e+06 M⁻¹ s⁻¹.
B2 gave a Kd of 0.0685 nM, a koff of 6.01e-05 s⁻¹ and a kon of 877000 M⁻¹ s⁻¹.
The molecule B3 came in with a Kd of 0.0696 nM, a koff of 2.67e-05 s⁻¹ and a kon of 385000 M⁻¹ s⁻¹.

In the next experiment the target is T3, His-cynomolgus monkey LIGHT. In words: SPR, Biacore 8K, antibody on CM5 chip.
The molecule B1 registered a Kd of 0.0487 nM, a koff of 4.89e-05 s⁻¹ and an association rate constant (kon) of 1e+06 M⁻¹ s⁻¹.
On to B2, for which the affinity, expressed as Kd, was 0.0613 nM; the koff worked out at 5.86e-05 s⁻¹; the kon turned out to be 956000 M⁻¹ s⁻¹.
With B3, the Kd is 0.0347 nM, the koff came to 1.24e-05 s⁻¹ and the on-rate (kon) is 357000 M⁻¹ s⁻¹.
The matching figures for B4: 0.0582 nM, 4.24e-06 s⁻¹ and 72700 M⁻¹ s⁻¹.
B11: the Kd worked out at 0.16 nM, the koff was found to be 1.26e-05 s⁻¹ and the kon was determined as 79100 M⁻¹ s⁻¹.

A further experiment concerns the target T2, His-human LIGHT. In words: SPR, Biacore 8K, antibody on CM5 chip, human LIGHT.
For B5, the dissociation constant (Kd) amounted to 0.041 nM, the koff stood at 5.34e-05 s⁻¹ and the kon was 1.3e+06 M⁻¹ s⁻¹.
The matching figures for B6: 0.0575 nM, 6.75e-05 s⁻¹ and 1.18e+06 M⁻¹ s⁻¹.
Turning to B8, the affinity, expressed as Kd, was 0.062 nM; the koff came out at 7.69e-05 s⁻¹; the kon was determined as 1.24e+06 M⁻¹ s⁻¹.
In turn, B9 yielded an equilibrium dissociation constant (Kd) of 0.383 nM, an off-rate (koff) of 8.03e-05 s⁻¹ and an on-rate (kon) of 210000 M⁻¹ s⁻¹.
On the same counts, the results for B10 are 0.038 nM, 4.86e-05 s⁻¹ and 1.28e+06 M⁻¹ s⁻¹.

A further experiment deals with T4, hFc-human LIGHT (human).
T4 construct: also called hFc-huLIGHT
Description: competition ELISA, LTβR-His coated, hFc-huLIGHT added.
On to B5, for which the IC50 was 0.069 nM.
B6 registered an IC50 of 0.0773 nM.
In the case of B8, the 50% inhibitory concentration (IC50) is 0.0864 nM.
B9 had an IC50 of 0.083 nM.
In the case of B10, the IC50 came out at 0.0676 nM.

Another experiment concerns the target T4, hFc-human LIGHT. The experiment is described as above. The source holds these as a separate data set.
Molecule B12 gave an IC50 of 0.174 nM.
Consider B13, for which the 50% inhibitory concentration (IC50) stood at 0.204 nM.
On the same count and under the same terms, next, B14: 0.189 nM; B15: 0.223 nM.
In turn, B16 returned an IC50 of 0.195 nM.
